Results reported in the nanobody polyreactivity screen of Harvey et al. (2022).

Assay: yeast display, Sf9 membrane polyspecificity reagent, FACS + sequencing; frameworks hold sequencing errors
Procedure, shortened: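 Nanobodies from a synthetic yeast display library (Saccharomyces cerevisiae BJ5465), induced 36–48 hours with galactose, were stained 1 hour at 4 °C with 10% biotinylated, detergent-solubilized Sf9 membrane reagent, enriched on streptavidin microbeads, then FACS-sorted. Anti-HA (expression) and streptavidin (reagent binding) fluorescence set low and high (top ~1%) gates. Polyreactivity labels come from the gate of origin. Genes were colony-PCR amplified, MiSeq 2 × 250 sequenced and filtered by CDR length.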

Sequence | polyreactivity (PSR sort gate)
QVQLVESGGGLVQAGGSLRLSCAASGSTGVYAMGWYRQAPGKERELVADITSGGNTDYADSVKGRFTISRDNAKNTVYLQMTSLKPEDTAVYYCAADDYYVLDYFWFIEYGYWGQGTQVTVSS | high polyreactivity
QVQLVESGGGLVQAGGSLRLSCAASGFIFNNYGMGWSRQAPGKERELVATISRGASTNYADSVKGRFTISRDNAKNTVYLQMNSLKPEDTAVYYCAKDYGDWGQGTQVTVSS | low polyreactivity
QVQLVESGGGLVQAGGRLRLSCAASGFTFKRNAMGWYRQAPGKERELVAAITWSGGSTYYADSVKGRFTISRDNAKNTVYLQMNSLKPEDTAVYYCAALYRSRYYAGDYLGQGTQVTVSS | high polyreactivity
QVKLVESGGGLVQAGGSLRLSCAASGRTFLRYTMGWYRQAPGKEREFVAAISYDTSSTNYADSVKGRFTISRDNAKNNLYLQMNSLKPEDTAVYYCATGPYYGYDEFDYWGQGTQVTVSS | low polyreactivity
QVQLVESGGGLVQAGGSLRLSCAASGSTSTYYAMGWYRQAPWKERELVAANTLGAGRTYADSEKGRFTISRDNAKNTVSLQMNSLKPEDTAVYYCAADGYISVNYLRYDYWGQGTQVTVSS | low polyreactivity
QVQLVESGGGLVQAGGSLRLSCAASGSIFGSYAMGWYRQAPGNERELVAAISKSGGNTYYADSVKGRFTISRDNAKNTVYLQMNSLKPEDTAVYYCAARYRFLRPKVNYWGQGTQVTVSS | high polyreactivity
QVQVVESGGGLVQAGGSLRISCAASGRILGNNVMGWYRQAPWKERDLVAAITSSGGRTYYADSVKGRFTISRDNAKNTVYLQMNSLKPVDTAVYYCAAERRYYGKFNYWGHGTQVTVSS | high polyreactivity
QVQLVESGGGLVQAGGSLRLSCAASGSIFYPYVMGWYIQAPGKESELVASISRRGGRTYYADSVKGRFTISRDYAKNTVYLEMNSLKPEDTAVYYCAKRTYDSFYGYYYWGQVTQVTVSS | high polyreactivity
QVQLVESGGGLVQAGGSLRLSCAASGSIIVRYAMGWYRQAPGKERALVATITFRDTSTYYADSVKGRFTITRDNAKNTVYLQMNSLKPEDTAVYYCAAVRADLWDIARYDYWGQGTQVTVSS | low polyreactivity
QVQLVESGGGLVQAGGSLRLSCAPYGLTFYGYTMGWYIQAPGKQRELVASISWSGGNKYYADSVKGRFTISRDKAKNSVYLQMNSLKPEDTAVYYCAAEHWTYDCVDYWGQGTQVTVSW | low polyreactivity
QVQLVESGGGLVQAGGSLRLSCAASGNTFYQYAMGWYRQAPGTERELVAAISSSGGSTYYADSVKGRFTISRDNAKKTVYLQMNSLKPEDTAVYYCATDKSYGYYYWGQGTQVTVSS | low polyreactivity
QDQLLESGAGLVQAGGSLRLSCAASGRIFDYNVMGWYRQAPGKERELVADITSSGGSTYYADSVKGRFTISRDNAKNTVYLQMNSLKPEDTAVYYCYISYFTIYDDFYYWGQGTQVTVSS | low polyreactivity
QVQLVESGGGLVQAGGSLRLSCAASGSTFEYNAMGWYRQAPGKERELVASSTNYADSVKGRFTISRDNAKNTVYLQMNSLKPDDTEVYYCARDRYYTREWYWYRHDHWGQGTQVTVSS | low polyreactivity
QVQIVESGGGLVPAGCSLRLICAASGFTYALYAMGWYRQAPGKETELVAANTYRGGSTYDADSVKWRFTISRDNAKNTVYLQLISLKPEDTAVYYCNAGGLWFPGVPDYDYWVQGTQVTVSS | high polyreactivity
QVQLVESGGGLVQAGGSLRLSCADSGRTNPHYAMGWYRQAPGKESEFVAAISSRGGSTYDADSVKGRFTISRDNAKNTVYVQMNSLKPEDTAVYYCAAQYDGLPRVSYGLGEFGYWGQGSQVTVSS | low polyreactivity
QLQLVESGGGLFQAGGRLRLSFAATGSTFGYYARGWYRQAPGKERELVAAISGSGGSTYYADSVKGRFTISRDNAKNTVYLQMNSLKPEDTAVYYCAATFHRLPKWGSPYYYWGQGTQVTVSS | high polyreactivity
QVQLVESGGGLVQAGGSLRLSCAASGSIFPFNAMGWYRPAPGKERELVAAITSGGSTNYADSVKGRFTISRDNAKNTVYLQMNSLKPEDTADYYCAADWRYWRWAFDYWGQGTQVTVSS | high polyreactivity
QVQLVESGGGLVQAGGSLRLSCAASGRIFYSYAMGWYRQAPGKERELVASITSSGGSTYADSVKGRFTISRDNAKNTVYLQMNSLKPEDTAVYYFDYWGQGTQVTVSS | low polyreactivity
QVQLVESAGGLVQAGGSLRLSCAASGLIFRFNAMGWYRQAPGKERELVAAITRAGSTYYADSVKGRFTISRDNAKKTVYLQMNSLKPEDTAVYYCAAGQYRLPQRGYGYWGQGTQVTVSS | high polyreactivity
QVQLVESGGGLVQAGGSLRLSCAASGSTLYPYAMGWYRQAPGKERELVAVITLRGGSTYYADSVKGRFTISRDNAKNTVYLQMNSLKPEDTAVYYCATGNSKGRRTVRYGYWGQGTQVTVSS | high polyreactivity
QVQLVESGGGLVQAGGSLRLSCAASGRVFTPYAMGWYRQAPGKERELVAVIRDGSTYYADSVKGRFTISRDNAKNTVYLQMNSLKPEDTAVYYCRYDIWVWWSGAYDYWGQVTQVTVSS | low polyreactivity
QVHLVESGGGLLQAGGSLRLSFAASGTFYYYAMGWNRQAPGKERELVATISWDSASTYYADSVKGRFTISRDNAKNTVYLQMNSLKPEDTGVYYCAAGGSSSWAFNYWGQGTQVTVSS | low polyreactivity

Sequence | polyreactivity (PSR sort gate)
QVQLVESGGGLVQAGGSLRLSCAASGSTFFHNAMGWYRQAPGKERELVAAINWNGGSTYYADSVKGRFTISRDNAKNTVYLQMNSLKPEDTAVYYCAADIYTYLGAYYIGYYWGQGTQVTVSS | low polyreactivity
QVQLVESGGGLVQAGGSLRLSCAASGSILKSNAMGWYRQAPGKERELVAAITYRDGSTYYADSVKGRFTISRDNAKNTVYLQMNSLKAEDTAVYYCAAEPSWWNVFYPGYNYWGQGTQVTVSS | high polyreactivity
QVQLVESGGGIVQAGGRLRLRCAASGFTFGRYAMGWYRQEPGKEREFVAAITWSGGGTYYADSVKGRFTISRDNAKNTVYLQMNSLKPEDTAVYYCAADRRAYGGGYLGQGTQVTVSS | high polyreactivity
QVQLVESGGGLVQAGGSLRLSCAASGLTFYWYAMGWYRQAPGKERELVAAITSTGSTYYADSVKGRFTISRDNAKNTVYLQMNSLKPEDTAVYYCNADFPANWGWDYDYWGQGTQVTVSS | low polyreactivity
QVQLVESGGGLVQAGGSLRLSCAASGFIISPYARGWYRQAPGKETELVAAISWSGVSTYYADSVKGRFTMSRDNAKNTVYLQMNSLNPEDTAVYYCAADPYCVKYRYGDDYWGQGTQVTVSS | high polyreactivity
QVQLQESGGVLMQAGGNLRLSFPASGYISTHYDMDWYRQAPGKERELVARIDDGAITNYADSVKGRFTISRDNAKNTVYLQMNSLKPEDTAVYYCAVYYGDDYYHDYWGQGTQVTVSS | low polyreactivity
QVQLVESGGGLVQAGGSLRLSCAASGFIFSYYAMGWYRQAPGKERELVAAITVRGGSTYYADSVKGRFTISRDNAKNTVYLQRNCLKPEDTAVYYCNTVHGLWRRYNYWGQGTQVTVSS | high polyreactivity
QVQLVESGGGLVQAGGSLRLICAASGRIFRPYAMGWYRQAPGKEREFVATIRFTTGRTYYADSVKGRFTISRDNAKNTVYLQMNSLKPEDTAVYYCAADFAFVNYAKISYTTHDYWGQGTQVTVSS | high polyreactivity
QVQLVESGGGLVQAGGSLRLSCAASGIIFRYYARVWYRQAPGKEREFVAAINYSGGSTYYADSVKGRFTISRDTAKYSVYLQMNSLKPEDTAVYYCAARSYTYTAPIYGYWGQGTQVTVSS | high polyreactivity
QLQLVESVGGLVQAGGSLRLSCAPSGSTFYWNAMGWYRQAPGKERELVAVITSSGTRTYYADSVKGRFTISRDNAKNTVYLQMNSLKPEDTEVDYCAKRETYTGPNSRYGQWKKVYYWGQGTQVTVSS | low polyreactivity
QVQLVESGGGLVQAGGSLRLSCAASGSTFTYYAMGWYRQAPGKERELVAAITSNGGSTFYADSVKGRFTISRDNAKNTVYLQMNSLKPEDTAVYYCAAYRTHGPPRAIRFDYWGQGTQVTVSS | high polyreactivity
QVQLVESGGGLVQAAGSLRLSCAASGLTFRVNDMGWYRQAPGKERELVATISSGGSTYYADSVKGRFTISRDNAKNTVYLQMNSLKAVDTAVYYCATNSEGQESNSYYVWMGYWGQGTKVTVSS | low polyreactivity
QVQLVESGGGLVQAGGSLRLSCAAYGLTFGYYVMGSYRQAPGKERELVADINFSGGSTYYADSVKGRFTISRDNAKNTVYLHMNSLKTEDTAVYYCNAVVYRFTVSSGYESWGEGTQVTVSS | low polyreactivity
QDQLVESVGGLVQAGGSLRLSCAASGSIFDQNAMGCSRHAPGKESELVAAITRGGSTKYADSVKGRFTISRDNAKNTVYLQMNSLKPEDTAVYYCARTDRRRYQPYEYWGPGTQVTVSS | low polyreactivity
QVQLVESGGGLVQAGGSLRLSCAASGSILAYNAMGWYRQAPGKERELVASISKSGSSTYADSVKGRFTISRDNAKNTVYLQMNSLNPEDTAVYYCNARYYFSYYAFDYWGQGTQVTVSS | low polyreactivity
QVQLVESGGGLVQAGGSLRLSCAASGFTFGYYDMGWYRQAPGKERELVAAISSSDVSTYADSVKGRFTISRDNAKNTVYLQMNSLKPEDTAVYYCAADFWYSYYYWGQGTQVTVSS | high polyreactivity
QVQLVESGGGLDQAGGSLRLSCAASGSIFYPYAMGWYRQAPGKERELVASNSSGGSTYYADSVKGRFTISRDNAKNTVYLQMNSLKPEDTAVYYCARQDYKRFYRYRFGNLYDSWGQGTQVTVSS | high polyreactivity
QVQLVESGGGLVQAGGSLRLSCAASGRTFRYYAMGWYRQAPGKERELVADISSTGRTYYADSVKGRFTISRDNAKNTVYLQMNSLKPEDTAVYYCNADYFFEFDYWGQGTQVTVSS | low polyreactivity
QDQLVESRGVLVQAGGSLRLTCAASGRTFYLNAMGWNRQATGKEREFVAAITWSSGSTYYADSVKGRFTISRDNAMNTVYLQMNSLKPEDTAVYYCAAAGRWSAYMYSWGQGTQVTVSS | high polyreactivity
QVQLVESGGGLVQAGGSLRLSCAASGIIFYYNAMGWYRQAPGKERELVAAISSSGGSTSYADSVKGRFTISRDNAKNTVFLQMNSLKPEDTAVYYCAADSYPAYLGFVGFDYWGQGTQVTVSS | low polyreactivity
QVQLVDSGGGIVQAGGSLRLSCAASGSTFGRKVMGWYRQAPGKERELVAAISFRGGSTYYADSVKGRFTISRDNAKNTVYLQMNSLKPEDTAVYYCARDYPTDAYDYWGQGTQVTVSS | low polyreactivity
